The source of these data is patent publication US20160279199A1, “PHARMACEUTICAL COMPOSITION FOR TREATING A METABOLIC SYNDROME” (Sanofi, priority 2010, published 2016).

Data set [1] concerns db/db mice. The experiment in a line: Fed blood glucose during treatment of db/db mice. Format: in vivo, mouse. To be noted: s.c. once daily (AVE0010 0.05, FGF-21 0.75, combination 0.75+0.05 mg·kg−1·day−1), up to 4 weeks, FIG. 6. The method, then:
(§1) Female db/db mice (BKS.Cg-m +/+ Leprdb/J, age of 6 weeks) were treated with vehicle (PBS), 0.05 mg·kg^−1·day^−1 AVE0010, 0.75 mg·kg^−1·day^−1 recombinant human FGF-21 (SEQ ID NO: 2) or a combined dose of FGF-21 (SEQ ID NO: 2) and AVE0010 (SEQ ID NO:9), (0.75+0.05 mg·kg^−1·day^−1) subcutaneously once daily. Mice were fed ad libitum. Before the first treatment, after one week and 4 weeks blood glucose and HbA1c were measured under fed conditions. After 21 days of treatment an oral glucose tolerance test (OGTT) was initiated. Fasted mice were orally challenged with 2 g·kg^−1 glucose solution and blood glucose was measured at indicated time points.

Data set [2] has as its system db/db mice. Kind of data set: Oral glucose tolerance test (OGTT) in treated db/db mice. To be noted: after 21 days s.c. once daily (AVE0010 0.05, FGF-21 0.75, combination 0.75+0.05 mg·kg−1·day−1), fasted, 2 g·kg−1 oral glucose, vs vehicle treated obese control, FIG. 5. The data set is classed as in vivo, mouse. As to the method:
as §1

Another data set concerns mouse 3T3-L1 adipocytes. As to conditions: in the presence and absence of insulin; cited from earlier work.
The test system of data set [3] is ob/ob mice, db/db mice, ZDF rats. To be noted: cited from earlier work.
Another data set concerns diabetic rhesus monkeys. As to conditions: 6 weeks; cited from earlier work.
[4] abbreviates: ob/ob and db/db mice and obese ZDF rats.

B1: FGF-21 (SEQ ID NO: 2): mutated FGF-21 carrying a deletion of amino acids 1-28 of human FGF-21 and an additional glycine at the N-terminus (protein)
chain: GHPIPDSSPLLQFGGQVRQRYLYTDDAQQTEAHLEIREDGTVGGAADQSPESLLQLKALKPGVIQILGVKTSRFLCQRPDGALYGSLHFDPEACSFRELLLEDGYNVYQSEAHGLPLHLPGNKSPHRDPAPRGPARFLPLPGLPPAPPEPPGILAPQPPDVGSSDPLSMVGPSQGRSPSYAS
modifications: G linked to fragment of human FGF21 from H29 to S209
notes: mutated FGF-21 carrying a deletion of amino acids 1-28 of human FGF-21 and an additional glycine at the N-terminus
With B1, the blood glucose result in the data set on db/db mice [1] is “inhibition of blood glucose increase”. In the data set on db/db mice [2], the “glucose tolerance (OGTT)” value is “small improvement in glucose tolerance”.

B2: FGF21: Fibroblast growth factor 21, metabolic regulator produced primarily by the liver, as studied in the cited literature (protein, UniProt Q9NSA1 29-209, looked up)
Fibroblast growth factor 21: HPIPDSSPLLQFGGQVRQRYLYTDDAQQTEAHLEIREDGTVGGAADQSPESLLQLKALKPGVIQILGVKTSRFLCQRPDGALYGSLHFDPEACSFRELLLEDGYNVYQSEAHGLPLHLPGNKSPHRDPAPRGPARFLPLPGLPPALPEPPGILAPQPPDVGSSDPLSMVGPSQGRSPSYAS
Turning to B2, the glucose uptake result in the data set on mouse 3T3-L1 adipocytes is reported as “stimulate glucose uptake”. The “mitogenicity, hypoglycemia, or weight gain” value in data set [3] (any dose tested, diabetic or healthy animals) was “did not induce”. Further, the “food intake or body weight/composition” value in data set [3] (diabetic or lean mice and rats, 2 weeks of administration) is on record as “did not affect”. The “fed and fasting blood glucose, triglycerides, and glucagon levels” value in data set [3] (ob/ob and db/db mice and 8 week old ZDF rats, dose dependent) is listed as “decrease”. In data set [3] (setting [4]), the “blood glucose and triglycerides” value is given as “significantly lowered”; the fasting insulin levels result is reported as “decreased”; the “glucose clearance during an oral glucose tolerance test” value is given as “improved”. In the data set on diabetic rhesus monkeys, the HDL-cholesterol entry is “increased”; the LDL-cholesterol entry is on record as “significantly lowered”; the body weight entry is given as “slightly but significantly decreased”; the “fasting plasma glucose, fructosamine, triglyceride, insulin and glucagone levels” value is on record as “reduced”. The hypoglycemia result with diabetic rhesus monkeys is on record as “not observed”.
